Laboratory results: patent US20250154272A1

Target: human CD137-His tag protein (R&D Systems, 9220-4B) (human) (UniProt Q07011)
Test: ELISA, human CD137-His tag protein immobilized on the plate, anti-human IgG Fc-HRP, A450-A570

- EC50 (read off the curve): 4 ng/mL
B1: ctrl IgG_L-3-34-j6 (antibody, part only; not given: isotype control IgG chains and linker, not shown: another chain or arm of the molecule; small tags and cut ends)
scFv: EVQLLESGGGLVQPGESLRLSCKAFGYTFTNHHINWVRQAPGKCLEWVGYINPYNDYTTFNDKFKDRFTLSVDKSKSTAYLQMNSLRAEDTAVYYCARTWGHWYFDLWGQGTLVTVSSGGGGSGGGGSGGGGSNIQMTQSPSSLSASVGDRVTITCRASQSVSSNLAWYQQKPGKAPKLLIYDSSTRATGVPSRFSGSGSGTDFTLTISSLQPEDFATYYCQQYNNWPPWTFGCGTKLEIKR
